The subject of data set [1] is synthetic recursive+1 pathway. Description: In vivo alcohol production of the synthetic recursive+1 pathway (fermentation, GC-FID). The data set is classed as cell-based, E. coli. To be noted: for 1-Butanol production / 1-Ethanol production / 1-Heptanol production / 1-Hexanol production / 1-Octanol production / 1-Pentanol production / 1-Propanol production: forty hours, microaerobic, defined media. How it is done:
The measured specificity and activity for each enzyme was used to select two candidates for further characterization of their ability to modulate alcohol production in vivo. The two enzymes with the highest activity and specificity (FIG. 4), KIVD_VLV and GEO 175, were tested for their ability to reprogram the synthetic recursive+1 pathway to produce long-chain alcohol products in vivo. The alcohol-producing biochemical pathway was adapted from a previous study used to synthesize alcohols of various lengths.^3,4 Starting from glucose, the aforementioned+1 pathway, involving LeuABCD, recursively elongates 2-ketoacids, starting with 2-ketobutyrate, into longer chained 2-ketoacids. These 2-ketoacids are then converted to aldehydes by ketoacid decarboxylases (native KIVD, KIVD_VLV, and GEO 175) and subsequently to alcohols by an alcohol dehydrogenase. Carbon flux through this alcohol synthesizing biochemical pathway is enhanced by overexpressing thrABC, ilvA, LeuABCD, and ADH6 on inducible plasmids transformed into E. coli.^3 The effects of overexpression were furthermore supported and maintained by knocking out the threonine exporter enzyme RhtA and the primary DNA recombination degradation enzyme RecA. The enzyme AdhE was also knocked out, which helps raise long chain alcohol production by eliminating a competing pathway where acetyl-CoA is directly converted to ethanol.^19
Genes were removed from the ATCC 98082 ΔrhtA strain genome using P1 transduction from the Keio collection as previously.^32 The aldehyde-alcohol dehydrogenase gene (adhE) was knocked out to eliminate ethanol production from acetyl-coA. In all strains, recA was knocked out to prevent recombination between the genome and plasmids, thereby stabilizing the transformants. Primers used to target recA for knockout were designed based on the Keio collection (Genobase, ecoli.aist-nara.ac.jp) and ordered from Integrated DNA Technologies.
For n-alcohol production, strains of ST128 were transformed with pZS_thrO, pZAlac_ilvABSleuA, and pZE_LeuA*BCDK*A6 containing various kivd mutations. Fermentation conditions were adapted from those in previous works,^3,4 with the following changes: 20 mL of medium was used, with 100 μg/mL ampicillin, […] kanamycin, and 100 μg/mL spectinomycin added. Cells were grown to an optical density at 600 nm of ˜0.6, followed by induction with 0.1 mM isopropyl-b-D-thiogalactoside (IPTG). After fermentation, cells were centrifuged for 15 minutes at 4000×g and 4° C. The supernatant was split into two fractions for analysis, 5 mL for short chain alcohols (ethanol, 1-propanol, and 1-butanol), and 15 mL for long chain alcohols (1-pentanol, 1-hexanol, 1-heptanol, and 1-octanol). Long chain alcohols were extracted from the 15 mL fraction by 3 mL n-hexane prior to analysis. GC-FID analysis was performed as previously described.^4

Data set [2] is described as follows: In vitro steady-state kinetics of purified 2-ketoacid decarboxylases (ADH/NADH-coupled), C8 substrate. The data set is classed as biochemical. Conditions: kcat/KM on C8. How it is done:
For the native KIVD and KIVD_VLV mutant, 2 ml overnight cultures of XL1B cells were transformed with pQE9 containing N-terminal his-tagged KIVD enzymes and grown in Terrific Broth (BP biomedical, Cat#3046-042) with 50 μg/mL of carbenicillin. (Fisher scientific, Cat# BP2648-5) For the GEOs, 2 ml overnight cultures of BLR cells were transformed with pet29b+ plasmid containing N-terminal his-tagged GEOs, and grown in Terrific Broth with 50 μg/mL of kanamycin. (Fisher scientific, Cat# BP906-5) These cultures were diluted 1:1000 in 500 mL of Terrific Broth with 1 mM MgSO4, 1% glucose, and 50ug/mL of corresponding antibiotics, then grown at 37° C. for 24 hours. […] Protein concentrations were determined using a Synergy H1 spectrophotometer (Biotek) by measuring absorbance at 280 nm using their calculated extinction coefficients with ExPASy ProtParam Tool.^33 All other buffers and salts were purchased from Fisher Scientific unless otherwise specified.
The kcat and KM values of selective KIVD mutants were measured for the substrates: C3, C5, isoC5, and C8. […] Activity was measured at 0.005 mM to 10 mM substrates. […] Absorbance readings were taken every 1-minute at OD340 at 21° C. for 60 minutes using the Synergy H1. Kinetic parameters (kcat and KM) were determined by fitting initial velocity versus substrate concentration data to the Michaelis-Menten equation.

“And” between values parts separate entries of the source, which are not always exact repeats. Identical values can stand only once.

B1: Native KIVD: ketoisovalerate decarboxylase used in the current synthetic recursive+1 pathway, SEQ ID NO:1 (protein, listed as Lactococcus lactis)
chain: MYTVGDYLLDRLHELGIEEIFGVPGDYNLQFLDQIISRKDMKWVGNANELNASYMADGYARTKKAAAFLTTFGVGELSAVNGLAGSYAENLPVVEIVGSPTSKVQNEGKFVHHTLADGDFKHFMKMHEPVTAARTLLTAENATVEIDRVLSALLKERKPVYINLPVDVAAAKAEKPSLPLKKENSTSNTSDQEILNKIQESLKNAKKPIVITGHEIISFGLEKTVSQFISKTKLPITTLNFGKSSVDEALPSFLGIYNGKLSEPNLKEFVESADFILMLGVKLTDSSTGAFTHHLNENKMISLNIDEGKIFNESIQNFDFESLISSLLDLSEIEYKGKYIDKKQEDFVPSNALLSQDRLWQAVENLTQSNETIVAEQGTSFFGASSIFLKPKSHFIGQPLWGSIGYTFPAALGSQIADKESRHLLFIGDGSLQLTVQELGLAIREKINPICFIINNDGYTVEREIHGPNQSYNDIPMWNYSKLPESFGATEERVVSKIVRTENEFVSVMKEAQADPNRMYWIELILAKEDAPKVLKKMGKLFAEQNKS
With B1, in data set [1], the overall alcohol production was found to be 4.0 g/L, the “short alcohols (C2-C4) share of total alcohol production” value amounted to 82%, the 1-Butanol production is 1964 ± 24 mg/L and the 1-Ethanol production is given as 652 ± 32 mg/L. In addition, in data set [1], the 1-Heptanol production worked out at 20 ± 3 mg/L, the 1-Hexanol production turned out to be 75 ± 6 mg/L, the 1-Octanol production entry was “not observed” and the 1-Pentanol production stood at 594 ± 20 mg/L. Besides, the 1-Propanol production in data set [1] was 693 ± 4 mg/L.

B2: GEO175: native enzyme from Streptomyces sp. C, predicted protein with no known function, 2-ketoacid decarboxylase, SEQ ID NO:2 (protein)
chain: MRTVRESALDVLRARGMTTVFGNPGSTELPMLKQFPDDFRYVLGLQEAVVVGMADGFALASGTTGLVNLHTGPGTGNAMGAILNARANRTPMVVTAGQQVRAMLTMEALLTNPQSTLLPQPAVKWAYEPPRAADVAPALARAVQVAETPPQGPVFVSLPMDDFDVVLGEDEDRAAQRAAARTVTHAAAPSAEVVRRLAARLSGARSAVLVAGNDVDASGAWDAVVELAERTGLPVWSAPTEGRVAFPKSHPQYRGMLPPAIAPLSRCLEGHDLVLVIGAPVFCYYPYVPGAHLPENTELVHLTRDADEAARAPVGDAVVADLALTVRALLAELPAREAAAPAARTARAESTAEVDGVLTPLAAMTAIAQGAPANTLWVNESPSNLGQFHDATRIDTPGSFLFTAGGGLGFGLAAAVGAQLGAPDRPVVCVIGDGSTHYAVQALWTAAAYKVPVTFVVLSNQRYAILQWFAQVEGAQGAPGLDIPGLDIAAVATGYGVRAHRATGFGELSKLVRESALQQDGPVLIDVPVTTELPTL
modifications: Streptomyces sp. C
For B2, the “catalytic efficiency on C8 lower than native KIVD” value in data set [2] is recorded as 2 fold. In data set [1], the “drop of overall alcohol production from that obtained with KIVD” value was around 10 fold; the “heptanol share of alcohol production” value came to 50%; the “hexanol share of alcohol production” value amounted to 29%; the major alcohol product entry was “heptanol (C7) and 1-heptanol”. In addition, in data set [1], the “pentanol share of alcohol production” value came to 16%, the 1-Butanol production is recorded as 19 mg/L, the 1-Ethanol production result is “no ethanol or propanol production is observed” and the 1-Heptanol production came out at 274 mg/L. In data set [1], the 1-Hexanol production stood at 160 mg/L, the 1-Octanol production amounted to 10 mg/L, the 1-Pentanol production is on record as 88 mg/L and the 1-Propanol production result is listed as “no ethanol or propanol production is observed”. For the same molecule, in data set [1] (listed as GEO 175), the 1-Butanol production turned out to be 19 ± 2 mg/L, the 1-Heptanol production is given as 274 ± 19 mg/L, the 1-Hexanol production stood at 160 ± 18 mg/L and the 1-Octanol production was determined as 10 ± 1 mg/L. Besides, the 1-Pentanol production in data set [1] (listed as GEO 175) is reported as 88 ± 12 mg/L. Besides, the “long chain (≥C5) alcohols produced” value in data set [1] (sum of long chain alcohols) was determined as 522 mg/L.

Source of the values: patent US10829756B2, “Discovery of enzymes from the alpha-keto acid decarboxylase family” (Regents of the University of California, priority 2015, dated 2020).
